Source: the supplement of paper PMC12764529
± gives the half width of the 95% confidence interval.

Test: folding stability dG unfold (combined trypsin and chymotrypsin); higher = more stable
In short: (§1)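 Digests were run with trypsin and chymotrypsin at 11 concentrations in threefold dilutions, plus a no-protease condition, on designed mini-proteins in a PA-tagged cDNA display construct. The mini-proteins were under 80 residues, had no cysteine, and were kept only when AlphaFold2 dimer inter-PAE was above 15. After sequencing, Bayesian fitting of the counts gave K50, from which unfolding free energy was derived against a sequence-predicted unfolded-state K50 and a shared folded-state K50, per protease or combined.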

Sequence | folding stability dG unfold [kJ/mol]
SAGGVITAEQLRDLVKTLPPDYTIRVKVYYSTSTEEYTITPDNPIKFPPNAPTETITRIEVVEISPDSAGGS [r16_97_TrMRF] | 18.1 ± 0.285
SAGGGITITLPDGSVIEIEPVSTFTNEDGQPVTKIKATLTDPVTGTSVEADIYLFPDGGVKIDLKPGSAGGS [r16_651_TrMRF] | 9.82 ± 0.259
SAGGSAGGSAVKIKIEQLGPGYFHITIEQEMMYPDGKSRKMTMTMMFKVNAPPNDPALRELLSAGGSAGGSA [r18_215_TrROS] | 12.4 ± 0.544
SAGGMVKLFTWPPGQPEEFAEKLRKLPDVVEVTIEEVDGALRIRIKLKGKDVEVTTDPAGRWSVTVVGSAGG [r13_907_JUSTAS] | 9.53 ± 0.201
SAGGSAGGSKTYKIKVEKLEDGTYKLKIIDKKTKKEYEITISKKNLPKIKEIKITKNGKIEIKSAGGSAGGS [r20_11_TrROS_Hall] | 11.5 ± 0.502
SAGSLKPGDLLYVRIYVYNPDGELLGEIDELVETEEEAERRLRELAREIEERLGRNVRVLAEIYRYPRLSAG [r5_232_TrMRF] | 17.5 ± 0.418
SAGATTTTTTTNPADDTTVTTTTTTTGNTSTVTSTSTSGSTSTLTTTTVTFTSPTTTTTTTTTTPVPSSAGG [r19_292_JUSTAS] | 1.11 ± 0.31
SAGGPWVVIKIRTPNKPIEIPIPGFKIENTGDSMTIVFPPDDPDQVLDALEKASPGIKITKIEVVKPSAGGS [r8_490_TrROS] | 2.41 ± 0.418
SAGGSAGGMIIRITTKNGKTLEIKAKSLEEAKAAIAEKLGLSKENIKPEDITKVEIYSEEELKESAGGSAGG [r6_586_TrROS_Hall] | 13 ± 0.669
SAGGSAGGSKIKPGEKVEIKLKIKVKDKNGKEKEIELTFSKDMTVEEIKKLLKELEKKGFEIESAGGSAGGS [r20_27_TrROS_Hall] | 11.4 ± 1.38
SAGGSAGGSAGGKEKKELYVVIKVDKNMTPEEIAEKLKKEFNVDKVEVEVREDGYLVVKVSAGGSAGGSAGG [r7_273_TrROS_Hall] | 6.77 ± 0.795
SAGGPKPGEKWIARTKEGLVPITLEGDKVTITDALTGKKTVIPIPGASLEEIKELLLSEPDYEVYPESAGGS [r16_583_JUSTAS] | -1.69 ± 0.795
SAGGSAGGSAGGMVVRITTKDGRTITFPPGTSLEELRSLPADEITRVEVVEVEPVRVVEPSAGGSAGGSAGG [r7_190_TrROS_Hall] | 7.34 ± 0.343
SAGGSAGGSAGEVEIEITKVTENEDGSETLEMTIRDKDTGKTYKLTFNKDNGILTLEEEPSAGGSAGGSAGG [r11_991_TrROS_Hall] | 10.2 ± 0.837
SAGGETVTITIKVKGKEITVTFNKDTGKVTITDKDTGKTVTITLPAGEEPTLEELLEALKKLGFEIEPSAGG [r13_687_TrROS_Hall] | 18.1 ± 0.414
SAGGSAGGSAGGSAPYPNTVVPTPLLSSVVTETTVEFFPDGTVVPVSTTTTVVLVYRLLSAGGSAGGSAGGS [r4_288_JUSTAS] | 19 ± 0.628
SAGNIKIKEVEINDNTLTISYRMPGSGMWVKASIQADKGAIKIKSEYYPPKGKPIGEEEFTVPLDELKLSAG [r5_308_TrROS] | 6.07 ± 1.17
SAPILPDAVVSEKPSVSQLPGNSTLVTTTYTYPGGPTITKTTTYTVDPSTGKWTTTSSTTLTPEAAAAASAG [r14_842_JUSTAS] | 3.16 ± 0.276
SAGGSAGGSAGGDPKAKPKKYYLIDLNARLVGVEVDPETGELTVTYELEGATLTLRFEGSAGGSAGGSAGGS [r10_962_TrMRF] | 11.1 ± 0.586
SAGPWMPYYVKVKFPDEEKLEKLVDEIQDESGFNMQVKKNPENGTRTVRVNMPPNIMEALKKHGFEIVSAGG [r19_306_TrROS] | 1.41 ± 1.42
SAGGSAGGSAGGTAEEIKEAIEELGYKVEVEVTDDAVKIRLELPNGEKFEFEIPKEALESAGGSAGGSAGGS [r10_1029_TrMRF] | 8.32 ± 0.669

Sequence | folding stability dG unfold [kJ/mol]
SKTIYIPKNVPIDYILKVVKEAEKKGKPVKIVIETYNNPKVIEALKKAGYKVEIKEDKKKKITLIVVYPESA [r9_759_TrMRF] | 17.6 ± 1.63
SAGGSAGGSAGVVRTDDGREVTVRRTVRVEVRLEITITASEEDREKAAAALERLLRELGLSAGGSAGGSAGG [r17_501_TrROS_Hall] | 12 ± 0.669
SAGGSTVAKKTTEKDPNSDTTTVTITFPETGVKLTVTVPPGGETTVTLNNGSPPTTLTLPLSVLKLLSAGGS [r8_238_JUSTAS] | 2.56 ± 0.322
SAMEKVYIKVKFEVEGDPNGKEKKTIELIVENPDPNIGKEKLLEIAKEAVEKFAKENGYKVKISEVEIGSAG [r14_190_TrMRF] | 17.9 ± 1.63
SASLANGGLRVDVELEFDPETHEIRVKRLTLYRGDEPVATADATIAVPPAAPPPPPVVVLDPDVPFDNESAG [r14_571_TrMRF] | 5.36 ± 0.502
SAGGKKNKPKPKVKVKILSVTANPDPNTPGLLSVSVPVLIESDDEEFALALAKELAKLPNVKVVVLGGSAGG [r13_606_TrMRF] | 5.94 ± 0.201
SAGGKKVIVIEGLTEEEILEKIKEEFPEPVEVIIRRPDGYVVKITVDAKTREIKKVEVVKVPPPEKPSAGGS [r8_225_TrROS_Hall] | 7.48 ± 1.21
SAGGLNIKFEILEVYPSPNGMRMIIVRMTIEYPVPVYRRDPNGEWRPMPPGQEPVTIEIDFYIMVTPSAGGS [r16_693_TrROS] | 19.9 ± 0.753
SAGPNLENLEIVEIKAEVLPDNSVIVPLKVRNDNGEEEEVWGRVGNGIVTLTYPNGFPAVAFIPPSAFSAGG [r19_84_TrMRF] | 2.72 ± 0.213
SAGGVTVSLSDPLSGNITTVPVAPNSTVTVTTSASLGGPNYTITTTVTVTLNGSTPVFTITSTVTPLSSAGG [r19_331_JUSTAS] | 14.3 ± 0.711
SAGGSAGGSAGVITIPLDDINDLPPGFKVKPNNNSMMIEDGDNPIHIPPGEPVQIEPPDESAGGSAGGSAGG [r17_91_TrROS] | 1.95 ± 0.92
SAGKKIDPEALAKRILKEFGLPEDAEVEVEEIENTYIARFPEATALFTIEDDEVTVFLAPARPEPELAGSAG [r5_190_TrMRF] | 3.69 ± 0.753
SMEVKIELTDEEIEAALEAGYEVEIEVRVVEVEYDEETDEVTVKVEVTITIRPVPPPPEVVVDEETGEILSA [r9_396_TrROS_Hall] | 5.33 ± 1.42
SAGGSASMSNVTSYVTVYKKPGVDDLYYKVRILAPSEPKVIEIPESEIPKYEKEGIKIEKVSEELLSAGGSA [r15_783_JUSTAS] | 5.34 ± 1.42
SAGGKPRILLRRETAPDGRPYYVLQVLRRDPSDDGWTPVLEHRFETPEEAERYARELAEKTGYELVGSAGGS [r16_512_TrMRF] | 19.7 ± 0.314
SAGMVIKVKVKNKDGEELELVIEIPEEELPEELTEEELKELAKKLAEELAKEGKVEVVEVEIVEPEELSAGG [r19_27_TrROS_Hall] | 8.51 ± 1.05
SAGGSAGGSPETVTLTLTVTVKTVTLDPETGELTTTTHTVTLTLTLSKEDLEALLKSPELKKLSAGGSAGGS [r12_1015_TrROS_Hall] | 11.5 ± 0.711
SAGGSAGGSMYVVRAVIRRPKAVPPPLAEEEIDIPVADREITAEEIARLFTPPGYELVRIEADSAGGSAGGS [r12_611_TrMRF] | -0.941 ± 0.586
SAGGSAGGSAMKVGEEVEVTVRIKVDGKEYEVKAKATLDEDGNVTLEVEIKAKEGKVEIEIESAGGSAGGSA [r18_428_TrROS_Hall] | 11 ± 0.544
SAGGSGMMLEEGVGVDPTTGELHRFTYLREPERPPVEVTVTTTTVVYTTPDGTTVTVTTTTTLEGGSAGGSA [r2_326_JUSTAS] | 3.3 ± 0.544
SAGGSAGMMTDVEVEEYPGTGLVRITIRTPDAVVSGEGRFLSPELLEITISFPGAGKRTNELIPVRSAGGSA [r15_837_JUSTAS] | 5.03 ± 0.368

Test: folding stability dG unfold from chymotrypsin proteolysis; higher = more stable
In short: as §1

Sequence | folding stability dG unfold [kJ/mol]
SAGGVITAEQLRDLVKTLPPDYTIRVKVYYSTSTEEYTITPDNPIKFPPNAPTETITRIEVVEISPDSAGGS [r16_97_TrMRF] | 18.5 ± 0.188
SAGGGITITLPDGSVIEIEPVSTFTNEDGQPVTKIKATLTDPVTGTSVEADIYLFPDGGVKIDLKPGSAGGS [r16_651_TrMRF] | 9.85 ± 0.13
SAGGSAGGSAVKIKIEQLGPGYFHITIEQEMMYPDGKSRKMTMTMMFKVNAPPNDPALRELLSAGGSAGGSA [r18_215_TrROS] | 12.5 ± 0.368
SAGGMVKLFTWPPGQPEEFAEKLRKLPDVVEVTIEEVDGALRIRIKLKGKDVEVTTDPAGRWSVTVVGSAGG [r13_907_JUSTAS] | 9.84 ± 0.117
SAGGSAGGSKTYKIKVEKLEDGTYKLKIIDKKTKKEYEITISKKNLPKIKEIKITKNGKIEIKSAGGSAGGS [r20_11_TrROS_Hall] | 12.9 ± 0.297
SAGSLKPGDLLYVRIYVYNPDGELLGEIDELVETEEEAERRLRELAREIEERLGRNVRVLAEIYRYPRLSAG [r5_232_TrMRF] | 19.07 ± 0.1
SAGATTTTTTTNPADDTTVTTTTTTTGNTSTVTSTSTSGSTSTLTTTTVTFTSPTTTTTTTTTTPVPSSAGG [r19_292_JUSTAS] | -1.88 ± 0.92
SAGGPWVVIKIRTPNKPIEIPIPGFKIENTGDSMTIVFPPDDPDQVLDALEKASPGIKITKIEVVKPSAGGS [r8_490_TrROS] | 1.33 ± 0.502
SAGGSAGGMIIRITTKNGKTLEIKAKSLEEAKAAIAEKLGLSKENIKPEDITKVEIYSEEELKESAGGSAGG [r6_586_TrROS_Hall] | 13.7 ± 0.628
SAGGSAGGSKIKPGEKVEIKLKIKVKDKNGKEKEIELTFSKDMTVEEIKKLLKELEKKGFEIESAGGSAGGS [r20_27_TrROS_Hall] | 13.5 ± 1
SAGGSAGGSAGGKEKKELYVVIKVDKNMTPEEIAEKLKKEFNVDKVEVEVREDGYLVVKVSAGGSAGGSAGG [r7_273_TrROS_Hall] | 7.27 ± 0.351
SAGGPKPGEKWIARTKEGLVPITLEGDKVTITDALTGKKTVIPIPGASLEEIKELLLSEPDYEVYPESAGGS [r16_583_JUSTAS] | -3.08 ± 1.34
SAGGSAGGSAGGMVVRITTKDGRTITFPPGTSLEELRSLPADEITRVEVVEVEPVRVVEPSAGGSAGGSAGG [r7_190_TrROS_Hall] | 8.26 ± 0.213
SAGGSAGGSAGEVEIEITKVTENEDGSETLEMTIRDKDTGKTYKLTFNKDNGILTLEEEPSAGGSAGGSAGG [r11_991_TrROS_Hall] | 12.8 ± 0.406
SAGGETVTITIKVKGKEITVTFNKDTGKVTITDKDTGKTVTITLPAGEEPTLEELLEALKKLGFEIEPSAGG [r13_687_TrROS_Hall] | 17.5 ± 0.397
SAGGSAGGSAGGSAPYPNTVVPTPLLSSVVTETTVEFFPDGTVVPVSTTTTVVLVYRLLSAGGSAGGSAGGS [r4_288_JUSTAS] | 19.9 ± 0.502
SAGNIKIKEVEINDNTLTISYRMPGSGMWVKASIQADKGAIKIKSEYYPPKGKPIGEEEFTVPLDELKLSAG [r5_308_TrROS] | 7.3 ± 1.3
SAPILPDAVVSEKPSVSQLPGNSTLVTTTYTYPGGPTITKTTTYTVDPSTGKWTTTSSTTLTPEAAAAASAG [r14_842_JUSTAS] | 4.09 ± 0.314
SAGGSAGGSAGGDPKAKPKKYYLIDLNARLVGVEVDPETGELTVTYELEGATLTLRFEGSAGGSAGGSAGGS [r10_962_TrMRF] | 11.6 ± 0.188
SAGPWMPYYVKVKFPDEEKLEKLVDEIQDESGFNMQVKKNPENGTRTVRVNMPPNIMEALKKHGFEIVSAGG [r19_306_TrROS] | -0.87 ± 1.92
SAGGSAGGSAGGTAEEIKEAIEELGYKVEVEVTDDAVKIRLELPNGEKFEFEIPKEALESAGGSAGGSAGGS [r10_1029_TrMRF] | 8.05 ± 0.46
